Key:
[1] = biological target: T1, ErbB2 (human, UniProt P04626 23-1255, tyrosine-phosphorylated (active) receptor after HRG stimulation; sites not resolved in the IP and FRET experiments); assay: ErbB2 immunoprecipitation from SKBr3 and T47D cells
T1 construct: whole, on cells; Endogenous receptor, tested in fixed cells (FRET) and in cell lysates (co-IP); also called HER2

[2] = biological target: RACK1, receptor of activated C kinase (human, UniProt P63244 1-317); assay: Copine-III IP from SKBr3 lysates, relative quantification by MRM mass spectrometry

binding result [1]: binds
fold enrichment in Copine-III IPs vs. control IPs [2]: 1.5 fold
B1: Copine III (other)
chain: MAAQCVTKVALNVSCANLLDKDIGSKSDPLCVLFLNTSGQQWYEVERTERIKNCLNPQFSKTFIIDYYFEVVQKLKFGVYDIDNKTIELSDDDFLGECECTLGQIVSSKKLTRPLVMKTGRPAGKGSITISAEEIKDNRVVLFEMEARKLDNKDLFGKSDPYLEFHKQTSDGNWLMVHRTEVVKNNLNPVWRPFKISLNSLCYGDMDKTIKVECYDYDNDGSHDLIGTFQTTMTKLKEASRSSPVEFECINEKKRQKKKSYKNSGVISVKQCEITVECTFLDYIMGGCQLNFTVGVDFTGSNGDPRSPDSLHYISPNGVNEYLTALWSVGLVIQDYDADKMFPAFGFGAQIPPQWQVSHEFPMNFNPSNPYCNGIQGIVEAYRSCLPQIKLYGPTNFSPIINHVARFAAAATQQQTASQYFVLLIITDGVITDLDETRQAIVNASRLPMSIIIVGVGGADFSAMEFLDGDGGSLRSPLGEVAIRDIVQFVPFRQFQNAPKEALAQCVLAEIPQQVVGYFNTYKLLPPKNPATKQQKQ
notes: Endogenous protein of the human breast tumor cell lines T47D and SKBr3, tested in cell lysates (pull-down, IP) or in fixed cells (FRET); also called CPNE3; CPN3
